The target of assay [1] is non-stabilized CE1 design Env SOSIP trimer (CH505.M5.G458Y N386R without F14 and 2P) (HIV-1) (UniProt Q2N0S6). The assay is described as follows: SPR. A general note: SPR reads the build-up and loss of mass on a sensor chip optically.
Assay [2] deals with CH848-d949 DE3 design Env SOSIP trimer (N408K/N442A) (HIV-1). The assay can be described thus: SPR.

The molecule CH235.12 Fab showed a fold change of ka against CH505.M5.G458Y in assay [1] of 2 fold.

B1: DH270 lineage intermediate I5.6 Fab (Fab, V domains shown)
VH: QVQLVQSGAEVKKPGASVKVSCKASGYTFTDYYIHWVRQAPGQGLEWMGWINPNTGRTNSAQKFQGRVTMTRDTSISTAYMELSRLRSDDTAVYYCARGGWIGLYYDSSGYPNFDYWGQGTLVTVSS
VL: QSALTQPASVSGSPGQSITISCTGTSYDVGSYNLVSWYQQHPGKAPKLMIYEVSKRPSGVSNRFSGSKSGNTASLTISGLQAEDEADYYCCSYAGSSTVVFGGGTKLTVL
Consider B1, for which, in assay [2], the fold change of ka against the unmutated CH848-d949 trimer came to 45 fold.

The values above are taken from paper PMC11532496.
